# According to US20250019439A1 (Adimab, published 2025):
# B1: ADI-34134 IgG (antibody, V domains shown)
# VH: QVQLVQSGAEVKKPGSSVKVSCKASGGTFSSYAISWVRQAPGQGLEWMGGIIPIFGTANYAQKFQGRVTITADESTSTAYMELSSLRSEDTAVYYCARGAPNYYGSGGYDDGWFDPWGQGTLVTVSS
# VL: EIVLTQSPGTLSLSPGERATLSCRASQSVSSDYLAWYQQKPGQAPRLLIYGASSRATGIPDRFSGSGSGTDFTLTISRLEPEDFAVYYCQQFGRVPTFGGGTKVEIK
# Tests used:
# ADI-26920 IgG [1] = biological target: T1, ADI-26920 IgG; assay: SPR Carterra avidity, CHO anti-ID, *koff limit
# T1 construct: anti-CD3 IgG
# T1 sequence (VH, as listed by the source limits assumed, chain 1 of 2): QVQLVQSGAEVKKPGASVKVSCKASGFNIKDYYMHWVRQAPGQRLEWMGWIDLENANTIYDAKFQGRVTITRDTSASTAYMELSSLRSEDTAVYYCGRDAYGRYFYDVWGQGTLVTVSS
# T1 sequence (VL, as listed by the source limits assumed, chain 2 of 2): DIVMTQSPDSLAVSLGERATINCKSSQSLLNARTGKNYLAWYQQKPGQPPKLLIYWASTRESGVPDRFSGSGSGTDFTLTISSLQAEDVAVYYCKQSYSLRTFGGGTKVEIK
# Method: (§1) Kinetic analysis was conducted at 25° C. in an HBSTE running buffer system (Carterra Cat #3630) using a Carterra LSA (Carterra USA, Salt Lake City, UT). The sample compartment was maintained at 20° C. for the duration of each experiment.
# (§2) For antibody capture experiments, a goat anti-human Fc antibody (Jackson ImmunoResearch) was covalently coupled to an HC30M sensor chip surface via standard amine coupling (1:1 EDC:NHS) and then blocked with ethanolamine (1.0 M, pH 8.5). Covalent coupling steps were performed in 25 mM MES buffer (Carterra, Cat #3625) plus 0.05% Tween20. The anti-CD3 antibodies (100 nM in running buffer) were flowed over discrete regions of interest on the chip surface for 5 minutes. […] Dissociation of the anti-idiotype antibodies was monitored for 300s. Several blank buffer samples were injected over the entire chip surface at the start of each non-regenerative kinetic cycle. The preceding blank buffer injection was used for blank surface subtraction. At the end of each non-regenerative kinetic cycle, all surfaces were regenerated via two 30s injections of 10 mM glycine, pH 1.7.
# (§3) For data processing and fitting, sensorgrams were double reference subtracted with a baseline drift correction of 4 RU. Sensorgrams were y-aligned and baseline corrected, filtered and cropped to include only the association and dissociation steps. Data was fitted to a 1:1 binding model using Carterra Kinetics Data Analysis software version 1.7.1.3055.
# ADI-26919 = biological target: T2, ADI-26919; assay: SPR Carterra avidity, CHO anti-ID, *koff limit
# T2 construct: anti-CD3 antibody made in CHO cells, captured by anti-human Fc
# T2 sequence (VH, as listed by the source limits assumed, chain 1 of 2): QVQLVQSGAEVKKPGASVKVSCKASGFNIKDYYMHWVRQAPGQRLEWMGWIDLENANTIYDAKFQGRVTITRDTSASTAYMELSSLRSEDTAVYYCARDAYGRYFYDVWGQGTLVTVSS
# Method: as §1, §2, §3
# ADI-26928 IgG = biological target: T3, ADI-26928 IgG; assay: BLI; tip anti-CD3 IgG, solution ADI-34134 IgG
# T3 construct: anti-CD3 IgG
# T3 sequence (VH, as listed by the source limits assumed, chain 1 of 2): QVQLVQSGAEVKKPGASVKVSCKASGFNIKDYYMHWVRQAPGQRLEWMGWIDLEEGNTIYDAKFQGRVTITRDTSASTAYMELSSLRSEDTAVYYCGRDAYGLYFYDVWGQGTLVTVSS
# Method: (§4) ForteBio affinity measurements were performed generally as previously described (Estep et al., MAbs. 2013 5(2):270-8). Briefly, ForteBio affinity measurements were performed by loading antibody IgG or Fabs on-line onto AHC sensors. Sensors were equilibrated off-line in assay buffer for 30 minutes and then monitored on-line for 60 seconds for baseline establishment. For avid binding measurement, sensors with loaded antibodies were exposed to IgG or Fab solutions for 3 minutes, afterwards they were transferred to assay buffer for 3 minutes for off-rate measurement. Kinetics data were fit using a 1:1 binding model in the data analysis software provided by ForteBio to obtain equilibrium dissociation constant (KD=koff/kₒₙ) values. In each column, tip-immobilized antibodies are listed first and solution antibodies second.
# (§5) CTL-19613 is an IgG1 antibody prepared with anti-CD3 variable domains corresponding with those of clone 12C described in United States Publication Number US 2010/0183615 (e.g., see paragraphs 469-479 and FIG. 25 thereof), which also make up the CD3 binding domain of the bispecific antibody pasotuxizumab. […] In each column, tip-immobilized antibodies are listed first and solution antibodies second.
# ADI-26921 IgG = biological target: T4, ADI-26921 IgG; assay: BLI; tip anti-CD3 IgG, solution ADI-34134 IgG
# T4 construct: anti-CD3 IgG
# T4 sequence (VH, as listed by the source limits assumed, chain 1 of 2): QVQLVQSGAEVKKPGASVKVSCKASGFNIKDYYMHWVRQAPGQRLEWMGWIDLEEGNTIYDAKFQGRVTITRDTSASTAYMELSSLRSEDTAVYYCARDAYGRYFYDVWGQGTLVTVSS
# Method: as §4, §5
# ADI-26913 IgG = biological target: T5, ADI-26913 IgG; assay: BLI; tip anti-CD3 IgG, solution ADI-34134 IgG
# T5 construct: anti-CD3 IgG
# T5 sequence (VH, as listed by the source limits assumed, chain 1 of 2): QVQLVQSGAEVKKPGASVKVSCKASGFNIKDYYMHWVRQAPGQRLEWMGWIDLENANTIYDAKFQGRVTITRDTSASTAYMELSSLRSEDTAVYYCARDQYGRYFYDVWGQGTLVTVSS
# T5 sequence (VL, as listed by the source limits assumed, chain 2 of 2): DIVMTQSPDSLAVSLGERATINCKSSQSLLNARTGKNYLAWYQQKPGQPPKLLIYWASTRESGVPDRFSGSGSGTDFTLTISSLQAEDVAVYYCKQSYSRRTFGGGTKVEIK
# Method: as §4, §5
# ADI-26906 IgG = biological target: T6, ADI-26906 IgG; assay: BLI; tip anti-CD3 IgG, solution ADI-34134 IgG
# T6 construct: anti-CD3 IgG
# Method: as §4, §5
# ADI-26941 IgG = biological target: T7, ADI-26941 IgG; assay: BLI; tip anti-CD3 IgG, solution ADI-34134 IgG
# T7 construct: anti-CD3 IgG
# T7 sequence (VH, as listed by the source limits assumed, chain 1 of 2): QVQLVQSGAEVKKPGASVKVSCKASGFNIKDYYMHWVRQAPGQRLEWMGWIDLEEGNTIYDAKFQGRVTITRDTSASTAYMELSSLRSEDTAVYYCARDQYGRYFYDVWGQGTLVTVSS
# T7 sequence (VL, as listed by the source limits assumed, chain 2 of 2): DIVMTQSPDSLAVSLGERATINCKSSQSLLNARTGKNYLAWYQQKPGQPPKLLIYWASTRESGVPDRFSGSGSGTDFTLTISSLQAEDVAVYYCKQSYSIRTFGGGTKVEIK
# Method: as §4, §5
# ADI-26920 IgG [2] = biological target: T1, ADI-26920 IgG; assay: BLI; tip anti-CD3 IgG, solution ADI-34134 IgG
# Method: as §4, §5
# ADI-26927 IgG = biological target: T8, ADI-26927 IgG; assay: BLI; tip anti-CD3 IgG, solution ADI-34134 IgG
# T8 construct: anti-CD3 IgG
# T8 sequence (VH, as listed by the source limits assumed, chain 1 of 2): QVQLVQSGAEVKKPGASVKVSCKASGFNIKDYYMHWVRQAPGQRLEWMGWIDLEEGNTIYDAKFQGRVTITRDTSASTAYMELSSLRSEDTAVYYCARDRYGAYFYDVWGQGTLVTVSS
# Method: as §4, §5
# ADI-26916 IgG = biological target: T9, ADI-26916 IgG; assay: BLI; tip anti-CD3 IgG, solution ADI-34134 IgG
# T9 construct: anti-CD3 IgG
# T9 sequence (VH, as listed by the source, chain 1 of 2): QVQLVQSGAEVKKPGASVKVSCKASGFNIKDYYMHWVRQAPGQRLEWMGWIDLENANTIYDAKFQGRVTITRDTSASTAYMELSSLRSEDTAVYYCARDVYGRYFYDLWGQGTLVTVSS
# Method: as §4, §5
# ADI-22523 IgG = biological target: T10, ADI-22523 IgG; assay: BLI; tip anti-CD3 IgG, solution ADI-34134 IgG
# T10 construct: anti-CD3 IgG
# T10 sequence (VH, as listed by the source limits assumed, chain 1 of 2): as the sequence (VH, as listed by the source, chain 1 of 2) above, with A56G, A62P, V100G, L108V counted along it
# T10 sequence (VL, as listed by the source limits assumed, chain 2 of 2): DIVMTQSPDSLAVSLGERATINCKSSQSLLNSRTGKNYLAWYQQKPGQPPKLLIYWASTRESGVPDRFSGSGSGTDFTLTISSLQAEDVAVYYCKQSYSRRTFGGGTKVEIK
# Method: as §4, §5
# ADI-22523 anti-CD3 bsIgG = biological target: T11, ADI-22523 anti-CD3 bsIgG (In the assayed molecule VL and VH are joined as one scFv (printed 'Vx-VH' orientation) by an undisclosed linker and fused to an Fc, paired with an anti-HER2 half-IgG. They are given here as two …); assay: BLI; tip anti-CD3 bsIgG, solution ADI-34134 IgG
# T11 construct: anti-HER2 IgG with one Fab arm replaced by the anti-CD3 scFv (printed 'Vx-VH', read as VL-VH); S354C and Y349C mutations; not shown: scFv linker between VL and VH; anti-HER2 heavy and light chains; hinge and Fc with S354C/Y349C
# T11 sequence (VH, as listed by the source limits assumed, chain 1 of 2): as the sequence (VH, as listed by the source, chain 1 of 2) above, with A56G, A62P, V100G, L108V counted along it
# Method: as §4
# (§6) Additional analysis was conducted using bispecific antibody formats incorporating anti-CD3 antibody variable domains. Bispecific antibodies were prepared using standard IgG formats (bsIgG) with replacement of Fab arms with anti-CD3 scFvs in Vx-VH orientation and with S354C and Y349C mutations for disulfide stabilization. Antibodies used for Fab arm replacement were anti-HER2 IgG antibodies, with one Fab arm from each replaced by a scFv corresponding to a different anti-CD3 antibody. […] In each column, tip-immobilized antibodies are listed first and solution antibodies second. Anti-CD3 antibodies associated with incorporated scFvs are listed by antibody number.
# ADI-26928 anti-CD3 bsIgG = biological target: T12, ADI-26928 anti-CD3 bsIgG; assay: BLI; tip anti-CD3 bsIgG, solution ADI-34134 IgG
# T12 construct: anti-HER2 IgG with one Fab arm replaced by the anti-CD3 scFv (printed 'Vx-VH', read as VL-VH); S354C and Y349C mutations; also called anti-CD3 bsIgG (ADI-26928 scFv); not shown: scFv linker; anti-HER2 Fab arm (heavy and light chain); hinge and Fc with S354C/Y349C
# T12 sequence (VH, as listed by the source limits assumed, chain 1 of 2): as the sequence (VH, as listed by the source, chain 1 of 2) above, with N55E, A56G, A97G, V100A, R103L, L108V counted along it
# Method: as §4, §6
# ADI-26921 anti-CD3 bsIgG = biological target: T13, ADI-26921 anti-CD3 bsIgG; assay: BLI; tip anti-CD3 bsIgG, solution ADI-34134 IgG
# T13 construct: anti-HER2 IgG with one Fab arm replaced by the anti-CD3 scFv (printed 'Vx-VH', read as VL-VH); S354C and Y349C mutations; also called anti-CD3 bsIgG (ADI-26921 scFv); not shown: scFv linker; anti-HER2 Fab arm (heavy and light chain); hinge and Fc with S354C/Y349C
# T13 sequence (VH, as listed by the source limits assumed, chain 1 of 2): as the sequence (VH, as listed by the source, chain 1 of 2) above, with N55E, A56G, V100A, L108V counted along it
# Method: as §4, §6
# ADI-26906 anti-CD3 bsIgG = biological target: T14, ADI-26906 anti-CD3 bsIgG; assay: BLI; tip anti-CD3 bsIgG, solution ADI-34134 IgG
# T14 construct: anti-HER2 IgG with one Fab arm replaced by the anti-CD3 scFv (printed 'Vx-VH', read as VL-VH); S354C and Y349C mutations; also called anti-CD3 bsIgG (ADI-26906 scFv); not shown: scFv linker; anti-HER2 Fab arm (heavy and light chain); hinge and Fc with S354C/Y349C
# T14 sequence (VH, as listed by the source limits assumed, chain 1 of 2): as the sequence (VH, as listed by the source, chain 1 of 2) above, with V100A, L108V counted along it
# Method: as §4, §6
binder,measurement,setting,value
B1,Kd,ADI-26920 IgG [1],0.11 nM
same,Kd,ADI-26919,0.11 nM
same,Kd,ADI-26928 IgG,0.85 nM
same,Kd,ADI-26921 IgG,0.57 nM
same,Kd,ADI-26913 IgG,0.77 nM
same,Kd,ADI-26906 IgG,0.43 nM
same,Kd,ADI-26941 IgG,1.13 nM
same,Kd,ADI-26920 IgG [2],0.46 nM
same,Kd,ADI-26927 IgG,0.45 nM
same,Kd,ADI-26916 IgG,1.04 nM
same,Kd,ADI-22523 IgG,0.37 nM
same,Kd,ADI-22523 anti-CD3 bsIgG,0.47 nM
same,Kd,ADI-26928 anti-CD3 bsIgG,1.39 nM
same,Kd,ADI-26921 anti-CD3 bsIgG,0.94 nM
same,Kd,ADI-26906 anti-CD3 bsIgG,0.75 nM
